B1: CFP-T7-H37 (protein)
chain: MTSNRADTRVIVVGGGGTIGSSTALHLVRSGYAPANITVLDTFEIPSAQSAGHDLNKIMGIDHRNKVNLQMSLEARQMWKEDELFQPFFHNTGRMDCEHTPKGIEKLKKLYQKLHDAGAGLEKTHAWLDNEDEILSKMPLLQRDQIQGWKAIWSQDGGWLAAAKAINAIGQFLKERGVKFGFGGAGSFKQPLFDDEGTTCIGVETADGTKYYADKVVLAAGAWSPTLVDLEDQCCSKAWVYAHIQLTPEEAAEYKGVPVVYNGEFGFFFEPDEFGVIKVCDEFPGFSRFKEHQPYGAPSPKRISVPRSHAKHPTDTYPDASEVSIKKAIATFLPRFQDKELFNRALCWCTDTADSTLLMCEHPKWKNFILATGDSGHSFKILPNVGKYVVELIEGRLPEEMAYQWRWRPGGDALKSRRAAPPKDLADMPGWKHDPKL
B2: fructosyl amino acid oxidase derived from Aspergillus nidulans resulting from substitution of serine at position 59 with glycine (protein)
chain: MTPRANTKIIVVGGGGTMGSSTALHLLRAGYTPSNITVLDTCPIPSAQSAGYDLNKIMGIRLRNKPDLQLSLEALDMWKNDPLFKPFFHNVGMIDVSSTEEGIEGLRKKYQSLLDAGIGLEKTNFMLESEDEILAKAPHFTQEQIKGWKGLFCGDGGWLAAAKAINAIGQFLKEQGVKFGFGGAGTFKKPLFADAHEKTCIGVETVDGTKYYADKVVLAAGAWSSTLVDLEEQCVSKAWVFAHIQLTPAEAAAYKNTPVIYDGDYGFFFEPNENGIIKVCDEFPGFTHFKMHQPYGSPAPKPISVPRSHAKHPTDTYPHASEVTIKKAINRFLPRFNDKELFNRAMCWCTDTADANLLVCEHPRWKGFYLATGDSGHSFKLLPNIGKHVVELLEERLESVFKDAWRWRPGSGDALKSRRAAPAKDLADMPGWRNEAKM
B3: AnFX-61D/62H/101K/105K/109L/112K/355S (protein)
chain: MTPRANTKIIVVGGGGTMGSSTALHLLRAGYTPSNITVLDTCPIPSAQSAGYDLNKIMGIDHRNKPDLQLSLEALDMWKNDPLFKPFFHNVGMIDVSSTEKGIEKLRKLYQKLLDAGIGLEKTNFMLESEDEILAKAPHFTQEQIKGWKGLFCGDGGWLAAAKAINAIGQFLKEQGVKFGFGGAGTFKKPLFADAHEKTCIGVETVDGTKYYADKVVLAAGAWSSTLVDLEEQCVSKAWVFAHIQLTPAEAAAYKNTPVIYDGDYGFFFEPNENGIIKVCDEFPGFTHFKMHQPYGSPAPKPISVPRSHAKHPTDTYPHASEVTIKKAINRFLPRFNDKELFNRAMCWCTDTADSNLLVCEHPRWKGFYLATGDSGHSFKLLPNIGKHVVELLEERLESVFKDAWRWRPGSGDALKSRRAAPAKDLADMPGWRNEAKM
B4: AnFX-61D/105K/109L (protein)
chain: MTPRANTKIIVVGGGGTMGSSTALHLLRAGYTPSNITVLDTCPIPSAQSAGYDLNKIMGIDLRNKPDLQLSLEALDMWKNDPLFKPFFHNVGMIDVSSTEEGIEKLRKLYQSLLDAGIGLEKTNFMLESEDEILAKAPHFTQEQIKGWKGLFCGDGGWLAAAKAINAIGQFLKEQGVKFGFGGAGTFKKPLFADAHEKTCIGVETVDGTKYYADKVVLAAGAWSSTLVDLEEQCVSKAWVFAHIQLTPAEAAAYKNTPVIYDGDYGFFFEPNENGIIKVCDEFPGFTHFKMHQPYGSPAPKPISVPRSHAKHPTDTYPHASEVTIKKAINRFLPRFNDKELFNRAMCWCTDTADANLLVCEHPRWKGFYLATGDSGHSFKLLPNIGKHVVELLEERLESVFKDAWRWRPGSGDALKSRRAAPAKDLADMPGWRNEAKM
B5: ketoamine oxidase derived from Neocosmospora vasinfecta (protein)
chain: MTTPRKETTVLIIGGGGTIGSSTALHLLRAGYTPSNITVLDTYPIPSAQSAGNDLNKIMGIRLRNKVDLQLSLEARDMWRNDALFRPFFHNTGRLDCESSAEGVEGLRREYQKLVEAGVGLEETHEWLDSEEAILEKAPLLQREEIEGWKAIWSEEGGWLAAAKAINAIGEELQRQGVRFGFGGAGSFKRPLFADDGTTCIGVETVDGTQYHADKVVLAAGAWSPALVDLEEQCCSKAWVYAHMQLTPEEAAVYKGCPVVYHGDVGFFFEPNENGVIKVCDEFPGFTRFKQHQPYGAPAPKPVSVPRSHAKHPTDTYPDASEESIKRAVSTFLPRFKDKPLFNRALCWCTDTADSALLICEHPRWKNFILATGDSGHSFKLLPIIGKHVVELVEGRLADDLAEAWRWRPGQGDARKSIRAAPAKDLADMPGWKHDQDSESR
B6: NvFX-62D/106K/110L (protein)
chain: MTTPRKETTVLIIGGGGTIGSSTALHLLRAGYTPSNITVLDTYPIPSAQSAGNDLNKIMGIDLRNKVDLQLSLEARDMWRNDALFRPFFHNTGRLDCESSAEGVEKLRRLYQKLVEAGVGLEETHEWLDSEEAILEKAPLLQREEIEGWKAIWSEEGGWLAAAKAINAIGEELQRQGVRFGFGGAGSFKRPLFADDGTTCIGVETVDGTQYHADKVVLAAGAWSPALVDLEEQCCSKAWVYAHMQLTPEEAAVYKGCPVVYHGDVGFFFEPNENGVIKVCDEFPGFTRFKQHQPYGAPAPKPVSVPRSHAKHPTDTYPDASEESIKRAVSTFLPRFKDKPLFNRALCWCTDTADSALLICEHPRWKNFILATGDSGHSFKLLPIIGKHVVELVEGRLADDLAEAWRWRPGQGDARKSIRAAPAKDLADMPGWKHDQDSESR
B7: fructosyl peptide oxidase derived from Eupenicillium terrenum (protein)
chain: MAHSRASTKVVVVGGGGTIGSSTALHLIRSGYTPSNITVLDVYKTPSLQSAGHDLNKIMGIRLRNGPDLQLSLESLDMWQNDELFKPFFHQVGMIDCSSSKEGIENLRRKYQTLLDAGIGLEKTNVWLESEDEILAKAPNFTREQVKGWKGLFCTDGGWLAAAKAINAIGIFLQDKGVKFGFGDAGTFQQPLFAADGKTCIGLETTDGTKYFADKVVLAAGAWSPTLVDLEDQCVSKAWVFAHIQLTPKEADAYKNVPVVYDGEYGFFFEPDEYGVIKVCDEFPGFSRFKLHQPYGAASPKMISVPRSHAKHPTDTYPDASEVTIRKAIARFLPEFKDKELFNRTMCWCTDTADANLLICEHPKWKNFILATGDSGHSFKLLPNIGKYVVELLEGSLSQEMAGAWRWRPGGDALRSRRGAPAKDLAEMPGWKHDAHL
B8: EFP-T5-R62D (protein)
chain: MAHSRASTKVVVVGGGGTIGSSTALHLIRSGYTPSNITVLDVYKTPSLQSAGHDLNKIMGIDLRNGPDLQLSLESLDMWQNDELFKPFFHQVGMIDCSSSKEGIENLRRKYQTLLDAGIGLEKTNVWLESEDEILAKAPNFTREQVKGWKGLFCTDGGWLAAAKAINAIGIFLQDKGVKFGFGDAGTFQQPLFAADGKTCIGLETTDGTKYFADKVVLAAGAWSPTLVDLEDQCVSKAWVFAHIQLTPKEADAYKNVPVVYDGEYGFFFEPDEYGVIKVCDEFPGFSRFKLHQPYGAASPKMISVPRSHAKHPTDTYPDASEVTIRKAIARFLPEFKDKELFNRTMCWCTDTADANLLICEHPKWKNFILATGDSGHSFKLLPNIGKYVVELLEGSLSQEMAGAWRWRPGGDALRSRRGAPAKDLAEMPGWKHDAHL
B9: PnFX-62D/106K/110L/113K (protein)
chain: MAPSRANTSVIVVGGGGTIGSSTALHLVRSGYTPSNVTVLDAYPIPSSQSAGNDLNKIMGVDLRNPVDLQLALEARQMWNEDELFKKFFHNTGRLDCAHGEKDIAKLKSLYQKLVDAGLDATNEWLDSEDEILKRMPLLSRDQIKGWKAIFSKDGGWLAAAKAINAVGEYLRDQGVRFGFYGAGSFKAPLLAEGVCIGVETVDGTRYYADKVVLAAGAWSPTLVELHEQCVSKAWVYGHIQLTPEEAARYKNSPVVYNGDVGFFFEPNEHGVIKVCDEFPGFTRFKMHQPFGAKAPKRISVPRSHAKHPTDTIPDASDVSIRRAIATFMPQFKNKKMFNQAMCWCTDTADAALLICEHPEWKNFVLATGDSGHSFKLLPNIGKHVVELLEGTLADDLAHAWRWRPGSGDALKSRRSAPAKDLADMPGWNHDKPRANL

In this data set the target is T1, α-fructosyl-valyl-histidyl-leucyl-threonyl-proryl-glutamic acid.
T1 chain: VHLTPE
As to B1, the Specific activity (U/mg), 1 mM αF6P was found to be 7.19 U/mg.
Turning to B2, the Specific activity (U/mg), 1 mM αF6P was 0 U/mg.
The protein B3 showed a Specific activity (U/mg), 1 mM αF6P of 0.283 U/mg.
B4 yielded a Specific activity (U/mg), 1 mM αF6P of 0.106 U/mg.
B5 gave a Specific activity (U/mg), 1 mM αF6P of 0 U/mg.
On the same count and under the same terms, with B6 the figure was 0.003 U/mg.
The same measure, in the same setting: with B7 the figure was 0 U/mg; with B8, 0.0043 U/mg.
For B9, the Specific activity (U/mg), 1 mM αF6P was 0.125 U/mg and the “specific activity on αF6P, fold over PnFX before mutation” value is reported as “specific activity on αF6P was elevated by 13.7 fold”.

For the origin of these results see patent publication US20160251695.
